Reference: the supplement of paper PMC7877785
± gives the uncertainty stated by the source.

Experiment: self-splicing fitness, log relative to wild type (ln ratio); higher = more splicing; Tetrahymena group I intron in knt gene, E. coli kanamycin selection, DiMSum; sequences stand for … in CUCUCU…GGAGGGAAAAGUUAUCAGGCAUGCACCUGGUAGCUAGUCUUUAAACCAAUAGAUUGCAUCGGUUUAAAAGGCAAGACCGUCAAAUUGCGGGAAAGGGGUCAACAGCCGUUCAGUACCAAGUCUCAGGGGAAACUUUGAGAUGGCCUUGCAAAGGGUAUGGUAAUAAGCUGACGGACAUGGUCCUAACCACGCAGCCAAGUCCUAAGUCAACAGAUCUUCUGUUGAUAUGGAUGCAGUUCACAGACUAAAUGUCGGUCGGGGAAGAUGUAUUCUUCUCAUAAGAUAUAGUCGGACCUCUCCUUAAUGGGAGCUAGCGGAUGAAGUGAUGCAACACUGGAGCCGCUGGGAACUAAUUUGUAUGCGAAAGUAUAUUGAUUAGUUUUGGAGUACUCGUGGUCG
Outline: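 A randomised library covering all eight P1ex-region intron nucleotides was built with the intron in the knt kanamycin-resistance gene on pET-22b(+) and held in E. coli BL21(DE3). Cells were grown overnight at 37°C or 30°C on LB agar, with or without 25 μg/mL kanamycin, plus 100 μg/mL carbenicillin, 50 μM IPTG and 0.2% rhamnose, and pooled colonies were amplicon-sequenced on an Illumina HiSeq 2500. DiMSum fitness is the error-weighted combination of wild-type-normalised replicate fold changes, kanamycin versus none.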

Row | Sequence | self-splicing fitness (ln) (30 °C) | self-splicing fitness (ln) (37 °C)
1 | CAAGAGCAAUAUUACGGAAU | -3.66 ± 0.26 | -2.42 ± 0.23
2 | AGGUAGCAAUAUUACGUGAC | -2.734 ± 0.023 | -1.69 ± 0.037
3 | CGGGAGCAAUAUUACGUAAC | -1.35 ± 0.27 | –
4 | UCUUAGCAAUAUUACGUCGA | -0.705 ± 0.13 | -0.434 ± 0.15
5 | CUCGAGCAAUAUUACGGAUC | – | 0.135 ± 0.27
6 | UGCGAGCAAUAUUACGACGG | -1.41 ± 0.15 | -0.347 ± 0.16
7 | UGACAGCAAUAUUACGGAAC | -2.81 ± 0.24 | -2.42 ± 0.24
8 | AACAAGCAAUAUUACGCAGC | -3.18 ± 0.16 | -2.53 ± 0.18
9 | CUGGAGCAAUAUUACGUCAG | -4.05 ± 0.46 | -2.59 ± 0.29
10 | AGGUAGCAAUAUUACGCGUG | -1.485 ± 0.013 | -0.784 ± 0.032
11 | GGUAAGCAAUAUUACGUAAG | -2.85 ± 0.16 | -2.17 ± 0.17
12 | GAAGAGCAAUAUUACGACCA | -1.34 ± 0.14 | -1.46 ± 0.36
13 | AUUGAGCAAUAUUACGAGAG | – | -2.66 ± 0.29
14 | CCUGAGCAAUAUUACGAUUU | -3.27 ± 0.19 | -2.3 ± 0.16
15 | CUCCAGCAAUAUUACGCAUC | -4.12 ± 0.42 | -2.4 ± 0.37
16 | GCGAAGCAAUAUUACGAAAU | -3.46 ± 0.35 | -1.07 ± 0.22
17 | GGCAAGCAAUAUUACGUUAU | -0.941 ± 0.065 | -0.757 ± 0.071
18 | GUUCAGCAAUAUUACGUAGA | -0.546 ± 0.1 | -0.394 ± 0.1
19 | AAACAGCAAUAUUACGAAUU | -2.36 ± 0.11 | -1.2 ± 0.13
20 | GGCAAGCAAUAUUACGCUAC | -3.33 ± 0.27 | -2.79 ± 0.23
21 | ACGGAGCAAUAUUACGGGGU | -3.65 ± 0.21 | -1.45 ± 0.21
22 | GCUAAGCAAUAUUACGCCAA | -2.35 ± 0.33 | -1.74 ± 0.41
23 | UGUUAGCAAUAUUACGGCAC | -1.58 ± 0.47 | -1.51 ± 0.43
24 | CGUAAGCAAUAUUACGCCUC | -4.31 ± 0.47 | -1.44 ± 0.44

Row | Sequence | self-splicing fitness (ln) (30 °C) | self-splicing fitness (ln) (37 °C)
25 | CAUCAGCAAUAUUACGGGUG | -3.28 ± 0.14 | -2.71 ± 0.2
26 | UGCCAGCAAUAUUACGACUG | -2.79 ± 0.12 | -2.14 ± 0.13
27 | ACCUAGCAAUAUUACGACAC | -0.951 ± 0.1 | -0.536 ± 0.17
28 | AACCAGCAAUAUUACGAAUA | -2.32 ± 0.13 | -1.71 ± 0.097
29 | AUCCAGCAAUAUUACGGAAC | -2.68 ± 0.18 | -1.06 ± 0.15
30 | AUAGAGCAAUAUUACGUUCA | 0.258 ± 0.11 | -0.633 ± 0.12
31 | GCGAAGCAAUAUUACGUUAG | -2.77 ± 0.12 | -2.35 ± 0.15
32 | ACAAAGCAAUAUUACGGUGA | -1.28 ± 0.069 | -0.535 ± 0.07
33 | CGUAAGCAAUAUUACGAGUA | -4.09 ± 0.39 | -1.93 ± 0.21
34 | CUUAAGCAAUAUUACGCACA | -2.43 ± 0.35 | -1.87 ± 0.4
35 | GCGAAGCAAUAUUACGGGGU | -3.89 ± 0.34 | -2.89 ± 0.29
36 | CAAUAGCAAUAUUACGCAUU | -4.62 ± 0.24 | -2.71 ± 0.17
37 | ACUUAGCAAUAUUACGCAAU | -3.64 ± 0.26 | -2.05 ± 0.21
38 | GUAAAGCAAUAUUACGGUCG | -0.377 ± 0.056 | -0.0786 ± 0.088
39 | UCAUAGCAAUAUUACGCGGA | -2.71 ± 0.18 | -0.822 ± 0.11
40 | AACUAGCAAUAUUACGGUUG | -1.36 ± 0.1 | -0.299 ± 0.11
41 | GAGGAGCAAUAUUACGCAAU | -2.36 ± 0.36 | –
42 | GCGCAGCAAUAUUACGCCCG | -1.59 ± 0.2 | 0.0341 ± 0.27
43 | GGCAAGCAAUAUUACGCUUC | -1.44 ± 0.21 | -2.39 ± 0.42
44 | GCCAAGCAAUAUUACGUGAC | -1.89 ± 0.13 | -0.468 ± 0.12
45 | CCGGAGCAAUAUUACGCGGG | -4.25 ± 0.39 | -2.25 ± 0.19
46 | AACGAGCAAUAUUACGGUUG | -3.98 ± 0.15 | -2.37 ± 0.13
47 | UCGCAGCAAUAUUACGAUAC | -3.52 ± 0.46 | -2.76 ± 0.34
48 | ACGUAGCAAUAUUACGCGCC | -1.23 ± 0.19 | -0.895 ± 0.25
